Experimental data taken from the supplement of paper PMC12636428.

Test system: Saccharomyces cerevisiae
Assay: transcriptional activation domain activity (GFP:mCherry ratio, weighted mean of sorted bins, harmonized to initial dataset scale) (arbitrary fluorescence ratio units); higher = stronger transcriptional activation
Conditions: beta-estradiol 1 µM; induction time 4 h
Experimental: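 53-aa protein tiles (fungal proteins plus yeast TF control tiles) fused C-terminally to a DBD-estrogen-binding domain-mCherry synthetic TF, integrated in S. cerevisiae (URA3 locus) with a GFP reporter. Cells were induced with 1 uM beta-estradiol for 4 h at 30 C, FACS-sorted into 8 bins by GFP:mCherry ratio and barcodes sequenced. Activity is the read-weighted mean bin fluorescence (GFP:mCherry), averaged over barcodes (median 12); tiles under 50 reads were discarded. New active-learning values were harmonized by linear fit onto the scale of the initial (Hummel et al.) dataset. The assay saturates at low and high signal.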

| Sequence | transcriptional activation domain activity |
| --- | --- |
| CHLTVIYFMSVPVIYLRLARLLFLEILTAGRIAIEGNGLGQGSLLAKTLRGRQ | 66500 |
| GEGRAGGGRGGRKDSRDDRRGNRNSSNERDRSRNRRNSNGNNRSKKNDSDRGR | 24400 |
| RRKEKKPRFAKKDKGSKEPVSKTCRIALRIKLCHGNICVMEVSLSVLASLVLH | 53100 |
| MFKSVFCLFSVLSFLLFHACFIYHSFFSFLFLLMMKLLLWLCATFATKWLFFC | 69500 |
| GYIVFLSMVMIHTDSRLDHLGKRSVLSEENSKNSWQLLVLFLHQLSTYWLLPK | 57900 |
| RRWQWYWGCFVCACALISLFLNVEVDRYRVQQLPLIVTSFFWYLMCMGTTCVV | 44600 |
| MFAKILVLSWFDSIRWGLFLLLCVMGVFLLFDIPFSFSLLVFSAWYFLFFSRR | 33800 |
| GSEEDAARAASTSRKRRRASAPRTGDGSDDERESSRAEASAGAGAGAEAKPRR | 18600 |
| MMNNNESEAENQRLLDELMNQTKVLQETLDFSLVTPTPHHNDDYKIHGSAYPG | 47300 |
| GGSGASPPPPDNRPPEERYAEQLRQLNDMGFYDFDRNVAALRRSGGSVQGAIE | 29100 |
| GSAFGQSAFGKPATGAFGAPTSAFGSNTTTNNNTTTTSSAFGSSTATSAFGSA | 14300 |
| RARAHRPKRGGRGRGRGTGTNAREGGGREEGKKKNRKKKTKTKTKTKTKTKKR | 36600 |
| KAAAAPKKKKAGVSDEEEKEEEEAESTPVDEDPKPKTKKLAAAKKPAAAAAAK | 33700 |
| HAVTYWMCLELTIHLFYTFNRRSTLYFWSILVSICSIISMTILLELIIFVYPL | 56200 |
| LREGGVLAVDGTSVGSVEVIYSYSIVVHTRITFRVVARVGRCLVVCLVRWDFY | 38200 |
| KLGPTPQCLDGFFFFSLLALASLHPVSPCLLFFFFFLLWFPSSFFWPSVLQVQ | 62500 |
| DYLWADMDSFFPFVRLLPTPVQEIWDMTFDIALLPLMECPPPEEWTLFDTYAY | 52400 |
| LEEIHILERLYYKSKNQHHASLFWRKLTEIRRVTTRLLKFNVTETVASIPLAF | 59200 |
| MIPGVLLECSFVEFLSFLLDLLLLTLLWIMRLMMMLLLPLFLLLLLIFVYCCV | 39500 |
| LFLFYACVNMIFWRVFMRISYSCPAHLKFFLTVEKWTELVKMTADAIDWLDAH | 47800 |
| PESINYVLEQGSLLSRFTYRFVIFICKLARINQPTYRLLIRFGLLDMILRICV | 87400 |

| Sequence | transcriptional activation domain activity |
| --- | --- |
| LLLHYKHEEFVGHEETDFVVMGFTKLLLCCISSLKSFKKPLNAGPLIERIFRK | 84700 |
| KRVKKEETVEKKPAVETEAPKKRGRKAAVSASAEEPKAAPAKRSRRKVSATAA | 13300 |
| MLLLRVAGGRVMGCDVVGGFFFIFLFYLFIILGFVCCLVGWHVCWVFWFLVGF | 54300 |
| ENNNYAVDLAKSNGMHIVGIQGSDIVDGRKTLVLGLVWQLMRLSIYKTLSSLT | 41900 |
| VVLWHIVISLRFWFNFVSVVPALRWVYLSIYEIKVDYKNLIEYTLPQLCSLFI | 54600 |
| RQSTSRRSDPGPVSRVTELARSDQDTTTTKLVSRLRATAQIRVQVVLAIVFRH | 53200 |
| MSDAAAPAPAPVEEVKPAEAAPEVVPAPRPLRRSPRPRRLRPLRPPPPSAAAE | 28400 |
| WAQERGVYANVFGYPGGVAWAMLVARICQLYPNAVSAVVIRKFFQIYSQWKWP | 29700 |
| SVKTKAAGKGKPKTTNDKATKSSEPRKAAKVSDDETKPTSNGAASAKAGGERQ | 23600 |
| MHLQGFVAWMFYILNCLAFSLRIISHWIFPIYLIWGIGLVENDYSSIDSWFLL | 42100 |
| MNAVQASGLVISLVLYVAVVFILLAGPLLFFLCYFFFLISITFPVHLPPMRVS | 63800 |
| EASLKAQKDEENESEEEGEGEEKEEGEKKEEEKKEEEKKEEEKKEDLEKLTEK | 33100 |
| INSTVHNLCELVLLPELFGFCCFSMRFFVFIDLLGTLILPATVVYLLYLIIVV | 26100 |
| SRVMRHFSAVEAGCFLWIWILVRIEGGMLLVNLYLDTTRITSTILNLYTACTG | 78500 |
| AAAVAVAREHVQKEVVATVTVAKEHVQKEEVVAAVAVAREHAQKEVVATVAVA | 56000 |
| MGVFILFAFLFFLMFVLLHFFLLLSFFLLSSLMGVYFFPHSMITYMFSFGLRS | 44100 |
| YVLVLTYLNYFVLILFGHMRDILGKVFKAQAYVHLKTVNGYAPLVSDFDSFYN | 63900 |
| MWLVVCIDGPVLSVLPRTILYLCVLLLLTLLASCSERSFAFARPLSSSCIFSY | 42600 |
| QKKKEAAARNKAKAAPAKEEAAVTPAKVVEKPAAAAAATPAKGGKKMTAALRL | 37600 |
| NNETETATKARRKKQAPKAAVEGSEDYESETATKAVAKKETKKKPIQKEVLVP | < 6570 |
| PTGESLLDAYWKTLLGGITYGDPNGMEALFWDWYQGILPFRMLQLFHLDRVWF | 48500 |

| Sequence | transcriptional activation domain activity |
| --- | --- |
| PKKEEPKRRSASRKRGSIFGGSLFGKKEEAKKEEEKPVEAAAETKAAETEAPA | 30700 |
| LQAARSADIAISQFRYLKKLLLVHGAWSYRRLATLILYSFYKNVVLYMTQFWF | 65100 |
| MVFPSKSLFYLVGPCLSFFFVPPTWYDVFHLLFSPMTLDYYPFVLWYSPFLST | 39300 |
| KQYCVRPNSGRIEPGKEVDVQVLLQAMKEDPPLDAKCRDKFLVQSVAVTADKE | 27100 |
| HPNDAGDENDGEGESAAPAKEKEPAGTAATPASYQLQSIACHKGTSIHAGHYV | 33100 |
| CPFLKCTVYLRTIKHYLFVLVFLPLDALFSIALSCYALSYARVLVVPLALSIF | 53700 |
| AALALKFRYRIDGSTEDRWISVSRMLNKIAHWYLPQKYTFLHPSGIVSYAVIR | 66900 |
| CFFYSAIWLTTIPHCTGRCVRPCGVHLINLGHVCRNHSRYWGYCICNNKMTPY | 57600 |
| TPTAQYQQGYHFRHLRYVMCLSVAVLIVGAVSLTIPLPISARIASILRFWEHD | 44200 |
| LFCLPDTAACGAMHAWRSWATSFLLFSFFAAICGQFFSLLFSYLLLFLCYWVI | 42900 |
| TVGVLILWCWLRLIQKALEKLHVKQIKTGHYGSPPLKNMLLPWLKQTFIFVLA | 69100 |
| SNTLSLALYTLIEHIGMQRLEYANNSLVMLLKLIHNIILSLKNLRLFFNFFVT | 41900 |
| SSPKKKGASKSDSAGRGNTAAAAKGRGKAKANAKGSPKKGGGGSARKRRKTAE | 41100 |
| PNGLMDPVLSTTNVSATSSNDNSANNSISSPEYTFGQFSMDSPHRTDATNTPI | 23000 |
| HYRIRLIYFMHFVAFGFGLSSILVNLFLCRPLRKNWMTDVNGRCFNRDAFYYA | 58600 |
| SLQEIDKMRVDGKFVDSEGIGRRPICVSSSILKQVLLYLLRRCYGLIYRLLSS | 33800 |
| YKTLDSCCSQLEGYLSRFALKLSHTHLLHLQRLLTLLHAFIAFTKEWQHNARK | 59400 |
| NNLNITGYEWISSELRDDALLSAVTLQGHHLGHTQPQEISLEENSNVVSGEEH | 59600 |
| CDSVYLHQDQCAHVLEYCMDATPGLINYIQLYFCSPIKPFIFLIMCCWLLFLF | 51500 |
